Assay results as given in article PMC11446282.
Residue numbers refer to the chain shown, from its start.

B1: ZDS1 L880: ZDS1, L880 to alanine (protein, UniProt P50111 1-915, looked up, variant L880A)
Protein ZDS1: MSNRDNESMLRTTSSDKAIASQRDKRKSEVLIAAQSLDNEIRSVKNLKRLSIGSMDLLIDPELDIKFGGESSGRRSWSGTTSSSASMPSDTTTVNNTRYSDPTPLENLHGRGNSGIESSNKTKQGNYLGIKKGVHSPSRKLNANVLKKNLLWVPANQHPNVKPDNFLELVQDTLQNIQLSDNGEDNDGNSNENNDIEDNGEDKESQSYENKENNTINLNRGLSRHGNASLIRRPSTLRRSYTEFDDNEDDDNKGDSASETVNKVEERISKIKERPVSLRDITEELTKISNSAGLTDNDAITLARTLSMAGSYSDKKDQPQPEGHYDEGDIGFSTSQANTLDDGEFASNMPINNTMTWPERSSLRRSRFNTYRIRSQEQEKEVEQSVDEMKNDDEERLKLTKNTIKVEIDPHKSPFRQQDEDSENMSSPGSIGDFQDIYNHYRQSSGEWEQEMGIEKEAEEVPVKVRNDTVEQDLELREGTTDMVKPSATDDNKETKRHRRRNGWTWLNNKMSREDDNEENQGDDENEENVDSQRMELDNSKKHYISLFNGGEKTEVSNKEEMNNSSTSTATSQTRQKIEKTFANLFRRKPHHKHDASSSPSSSPSSSPSIPNNDAVHVRVRKSKKLGNKSGREPVEPIVLRNRPRPHRHHHSRHGSQKISVKTLKDSQPQQQIPLQPQLEGAIEIEKKEESDSESLPQLQPAVSVSSTKSNSRDREEEEAKKKNKKRSNTTEISNQQHSKHVQKENTDEQKAQLQAPAQEQVQTSVPVQASAPVQNSAPVQTSAPVEASAQTQAPAAPPLKHTSILPPRKLTFADVKKPDKPNSPVQFTDSAFGFPLPLLTVSTVIMFDHRLPINVERAIYRLSHLKLSNSKRGLREQVALSNFMYAYLNLVNHTLYMEQVAHDKEQQQQQQQQP
B2: ZDS1 L863: ZDS1, L863 to alanine (protein, UniProt P50111 1-915, looked up, variant L863A)
Protein ZDS1: B1 Protein ZDS1 with L863A, A880L
B3: ZDS1 R858: ZDS1, R858 to alanine (protein, UniProt P50111 1-915, looked up, variant R858A)
Protein ZDS1: B1 Protein ZDS1 with R858A, A880L
B4: ZDS1 Y861: ZDS1, Y861 to alanine (protein, UniProt P50111 1-915, looked up, variant Y861A)
Protein ZDS1: B1 Protein ZDS1 with Y861A, A880L
B5: ZDS1 S882: ZDS1, S882 to alanine (protein, UniProt P50111 1-915, looked up, variant S882A)
Protein ZDS1: B1 Protein ZDS1 with A880L, S882A
B6: ZDS1 L881: ZDS1, L881 to alanine (protein, UniProt P50111 1-915, looked up, variant L881A)
Protein ZDS1: B1 Protein ZDS1 with A880L, L881A
B7: ZDS1 R862: ZDS1, R862 to alanine (protein, UniProt P50111 1-915, looked up, variant R862A)
Protein ZDS1: B1 Protein ZDS1 with R862A, A880L
B8: ZDS1 I860: ZDS1, I860 to alanine (protein, UniProt P50111 1-915, looked up, variant I860A)
Protein ZDS1: B1 Protein ZDS1 with I860A, A880L
B9: IER5_HUMAN (protein, UniProt Q5VY09 1-327, looked up)
Immediate early response gene …: MEFKLEAHRIVSISLGKIYNSRVQRGGIKLHKNLLVSLVLRSARQVYLSDPCPGLYLAGPAGTPAPPPQQQPGEPAAGPPAGWGEPPPPAARASWPETEPQPERSSVSDAPRVGDEVPVATVTGVGDVFQGGEADATEAAWSRVEGPRQAAAREAEGTAGGWGVFPEVSRAARRPCGCPLGGEDPPGTPAATPRAACCCAPQPAEDEPPAPPAVCPRKRCAAGVGGGPAGCPAPGSTPLKKPRRNLEQPPSGGEDDDAEEMETGNVANLISIFGSSFSGLLRKSPGGGREEEEGEESGPEAAEPGQICCDKPVLRDMNPWSTAIVAF
B10: ARP19_HUMAN (protein, UniProt P56211 2-112, looked up)
cAMP-regulated phosphoprotein …: SAEVPEAASAEEQKEMEDKVTSPEKAEEAKLKARYPHLGQKPGGSDFLRKRLQKGQKYFDSGDYNMAKAKMKNKQLPTAAPDKTEVTGDHIPTPQDLPQRKPSLVASKLAG
B11: FOXC1_HUMAN (protein, UniProt Q12948 1-553, looked up)
Forkhead box protein C1: MQARYSVSSPNSLGVVPYLGGEQSYYRAAAAAAGGGYTAMPAPMSVYSHPAHAEQYPGGMARAYGPYTPQPQPKDMVKPPYSYIALITMAIQNAPDKKITLNGIYQFIMDRFPFYRDNKQGWQNSIRHNLSLNECFVKVPRDDKKPGKGSYWTLDPDSYNMFENGSFLRRRRRFKKKDAVKDKEEKDRLHLKEPPPPGRQPPPAPPEQADGNAPGPQPPPVRIQDIKTENGTCPSPPQPLSPAAALGSGSAAAVPKIESPDSSSSSLSSGSSPPGSLPSARPLSLDGADSAPPPPAPSAPPPHHSQGFSVDNIMTSLRGSPQSAAAELSSGLLASAAASSRAGIAPPLALGAYSPGQSSLYSSPCSQTSSAGSSGGGGGGAGAAGGAGGAGTYHCNLQAMSLYAAGERGGHLQGAPGGAGGSAVDDPLPDYSLPPVTSSSSSSLSHGGGGGGGGGGQEAGHHPAAHQGRLTSWYLNQAGGDLGHLASAAAAAAAAGYPGQQQNFHSVREMFESQRIGLNNSPVNGNSSCQMAFPSSQSLYRTSGAFVYDCSKF
B12: 2ABA_HUMAN (protein, UniProt P63151 2-447, looked up)
Serine/threonine-protein …: AGAGGGNDIQWCFSQVKGAVDDDVAEADIISTVEFNHSGELLATGDKGGRVVIFQQEQENKIQSHSRGEYNVYSTFQSHEPEFDYLKSLEIEEKINKIRWLPQKNAAQFLLSTNDKTIKLWKISERDKRPEGYNLKEEDGRYRDPTTVTTLRVPVFRPMDLMVEASPRRIFANAHTYHINSISINSDYETYLSADDLRINLWHLEITDRSFNIVDIKPANMEELTEVITAAEFHPNSCNTFVYSSSKGTIRLCDMRASALCDRHSKLFEEPEDPSNRSFFSEIISSISDVKFSHSGRYMMTRDYLSVKIWDLNMENRPVETYQVHEYLRSKLCSLYENDCIFDKFECCWNGSDSVVMTGSYNNFFRMFDRNTKRDITLEASRENNKPRTVLKPRKVCASGKRKKDEISVDSLDFNKKILHTAWHPKENIIAVATTNNLYIFQDKVN
B13: AIFM2_HUMAN (protein, UniProt Q9BRQ8 2-373, looked up)
Ferroptosis suppressor …: GSQVSVESGALHVVIVGGGFGGIAAASQLQALNVPFMLVDMKDSFHHNVAALRASVETGFAKKTFISYSVTFKDNFRQGLVVGIDLKNQMVLLQGGEALPFSHLILATGSTGPFPGKFNEVSSQQAAIQAYEDMVRQVQRSRFIVVVGGGSAGVEMAAEIKTEYPEKEVTLIHSQVALADKELLPSVRQEVKEILLRKGVQLLLSERVSNLEELPLNEYREYIKVQTDKGTEVATNLVILCTGIKINSSAYRKAFESRLASSGALRVNEHLQVEGHSNVYAIGDCADVRTPKMAYLAGLHANIAVANIVNSVKQRPLQAYKPGALTFLLSMGRNDGVGQISGFYVGRLMVRLTKSRDLFVSTSWKTMRQSPP
B14: ENSA_HUMAN (protein, UniProt O43768 2-121, looked up)
Alpha-endosulfine: SQKQEEENPAEETGEEKQDTQEKEGILPERAEEAKLKAKYPSLGQKPGGSDFLMKRLQKGQKYFDSGDYNMAKAKMKNKQLPSAGPDKNLVTGDHIPTPQDLPQRKSSLVTSKLAGGQVE

test system: PP2A-B55α; assay: Single alanine mutational scan, YFP-tagged interactors immunoprecipitated from HeLa cells, Western blot; assay type: binding, human; settings: single alanine mutant of YFP-tagged ZDS1

| Molecule | Experimental % binding [%] |
| --- | --- |
| B1 | 0 |
| B2 | 110 |
| B3 | 75 |
| B4 | 42 |
| B5 | 98 |
| B6 | 11 |
| B7 | 32 |
| B8 | 60 |

test system: B55α interactors; assay: MS analysis of B55α WT, V228A, I284A, S287A and D340A immunopurifications; assay type: binding, human; settings: log2 ratio of interactor abundance, B55α D340A vs WT immunopurification, 4 replicates each, normalised to bait B55α
Description: Standard cloning techniques were used throughout. Point mutations were introduced by whole plasmid polymerase chain reaction (PCR). All constructs were fully sequenced. Synthetic DNA was purchased from GeneArt, Life Technologies and cloned into pcDNA5/FRT/TO (Invitrogen) expression vector containing YFP, resulting in the indicated YFP fusion proteins. These constructs were transiently transfected into HeLa cells 24 hours before harvesting cells. Cells were lysed in lysis buffer [50 mM tris-HCl (pH 7.5), 50 mM NaCl, 1 mM EDTA, 1 mM […], and 0.1% NP-40]. Complexes were immunoprecipitated at 4°C in lysis buffer with green fluorescent protein (GFP)–Trap (ChromoTek) and washed in lysis buffer. Precipitated protein complexes were washed three times in lysis buffer, eluted in 2× SDS sample buffer, and subjected to Western blotting or MS as indicated.
Pull-downs were analyzed on a Q-Exactive Plus quadrupole or Fusion Orbitrap Lumos mass spectrometer (Thermo Fisher Scientific) equipped with Easy-nLC 1000 or […] (Thermo Fisher Scientific) and nanospray source (Thermo Fisher Scientific).
Static modifications included carbamidomethylcysteine, and variable modifications included oxidized methionine and STY phosphorylation. Searches were filtered using orthogonal measures including mass measurement accuracy (±3 parts per million), Xcorr for charges from +2 to +4, and dCn targeting a <1% false discovery rate at the peptide level. Quantification of LC-MS/MS spectra was performed using MassChroQ ([57]) and the iBAQ method ([58]). All data were analyzed using R 4.3.0. Missing values were imputed from a normal distribution. […] In each dataset, the abundance of the protein of interest was normalized to be equal across all samples. Statistical analyses were done using a two-tailed Student’s t test.

| Molecule | log2_ratio_D340_WT |
| --- | --- |
| B9 | -7.50 |
| B10 | -2.01 |
| B11 | -5.21 |
| B12 | 0.00 |
| B13 | -0.14 |
| B14 | -2.08 |

same assay, conditions: log2 ratio of interactor abundance, B55α I284A vs WT immunopurification, 4 replicates each, normalised to bait B55α

| Molecule | log2_ratio I284_WT |
| --- | --- |
| B9 | 0.57 |
| B10 | -0.06 |
| B11 | -3.45 |
| B12 | 0.00 |
| B13 | -0.15 |
| B14 | -0.42 |

same assay, conditions: log2 ratio of interactor abundance, B55α S287A vs WT immunopurification, 4 replicates each, normalised to bait B55α

| Molecule | log2_ratio S287_WT |
| --- | --- |
| B9 | -6.37 |
| B10 | 0.27 |
| B11 | 0.53 |
| B12 | 0.00 |
| B13 | 0.33 |
| B14 | 0.42 |

same assay, conditions: log2 ratio of interactor abundance, B55α V228A vs WT immunopurification, 4 replicates each, normalised to bait B55α

| Molecule | log2_ratio V228_WT |
| --- | --- |
| B9 | -5.72 |
| B10 | -0.89 |
| B11 | -2.65 |
| B12 | 0.00 |
| B13 | -0.53 |
| B14 | -1.31 |
